# Laboratory results taken from IntAct's records for PubMed 12374762.
# B1: Aryl-hydrocarbon-interacting protein-like 1 (Homo sapiens), Q9NZN9 (parent)
# chain: MDAALLLNVEGVKKTILHGGTGELPNFITGSRVIFHFRTMKCDEERTVIDDSRQVGQPMHIIIGNMFKLEVWEILLTSMRVHEVAEFWCDTIHTGVYPILSRSLRQMAQGKDPTEWHVHTCGLANMFAYHTLGYEDLDELQKEPQPLVFVIELLQVDAPSDYQRETWNLSNHEKMKAVPVLHGEGNRLFKLGRYEEASSKYQEAIICLRNLQTKEKPWEVQWLKLEKMINTLILNYCQCLLKKEEYYEVLEHTSDILRHHPGIVKAYYVRARAHAEVWNEAEAKADLQKVLELEPSMQKAVRRELRLLENRMAEKQEEERLRCRNMLSQGATQPPAEPPTEPPAQSSTEPPAEPPTAPSAELSAGPPAEPATEPPPSPGHSLQH
# Variants of: B1
# Conditions: with nub1_human NUB1, Q9Y5A7
# Sequence of nub1_human NUB1, Q9Y5A7 (Q9Y5A7 whole entry): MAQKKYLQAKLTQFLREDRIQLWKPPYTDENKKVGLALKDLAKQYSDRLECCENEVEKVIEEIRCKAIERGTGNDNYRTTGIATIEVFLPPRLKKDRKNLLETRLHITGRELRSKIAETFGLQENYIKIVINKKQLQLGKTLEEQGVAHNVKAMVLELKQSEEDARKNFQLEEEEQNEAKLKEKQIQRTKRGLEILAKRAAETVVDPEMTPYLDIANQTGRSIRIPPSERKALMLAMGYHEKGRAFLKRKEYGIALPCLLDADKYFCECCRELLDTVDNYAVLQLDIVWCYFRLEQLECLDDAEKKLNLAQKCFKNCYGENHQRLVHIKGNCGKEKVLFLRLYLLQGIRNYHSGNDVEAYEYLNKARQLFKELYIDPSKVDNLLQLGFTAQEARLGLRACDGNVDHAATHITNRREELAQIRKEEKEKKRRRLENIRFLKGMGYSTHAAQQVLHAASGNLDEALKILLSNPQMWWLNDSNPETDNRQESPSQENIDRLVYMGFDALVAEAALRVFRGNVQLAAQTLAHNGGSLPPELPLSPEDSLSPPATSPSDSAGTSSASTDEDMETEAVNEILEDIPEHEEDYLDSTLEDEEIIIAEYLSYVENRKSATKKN
row,effect of a mutation on the interaction,Variant
1,decreasing interaction,M79T
2,decreasing interaction,R302L
3,decreasing interaction,G262S
4,decreasing interaction,R53W
5,decreasing interaction,V96I
